Laboratory results: the supplement of paper PMC10567573
± gives the standard deviation.

Experiment: protein stability index of a GFP-peptide fusion (GPS, HEK-293T) (PSI 1-6); higher = more stable
[1] = treatment: DMSO, c terminus: a fixed tail appended
[2] = treatment: MLN4924 1 uM, 8 h, c terminus: a fixed tail appended
[3] = treatment: DMSO, c terminus: native
[4] = treatment: MLN4924 1 uM, 8 h, c terminus: native
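Also: 24-mer peptide tiles fused after GFP, lentivirally expressed, FACS-sorted into six equal bins by GFP/DsRed ratio, decoded by Illumina sequencing, PSI is the read-weighted mean bin number.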

Row | Sequence | protein stability index [1] | protein stability index [2] | protein stability index [3] | protein stability index [4]
1 | TLGASSLREERGHPLHPRHRKAVH [C6orf223] | 4.54 ± 0.25 | 4.5 ± 0.098 |  | 
2 | ALKEDFGFKHRLWVYSGRRGVHCW [PRIM1] | 2.28 ± 0.65 | 2.48 ± 0.61 |  | 
3 | NSYPRADTGLFSRSKSGSEEVLCD [TRIM29] | 4.62 ± 0.33 | 4.68 ± 0.32 |  | 
4 | ILSKMPKPKPPPNSEGEQGPNGSQ [CCNC] | 5.07 ± 0.23 | 5.1 ± 0.12 |  | 
5 | EKVSQELKEPLHKALQMLLSQPVT [BCL2L13] | 2.88 ± 0.26 | 3 ± 0.45 |  | 
6 | WWALSTCGYFQVVNYTQGLWEKVM [SLC19A2] | 2.75 ± 1.3 | 2.45 ± 0.73 |  | 
7 | KADENNGFGSKNTAFCTHVFPETA [TBX5] | 4.01 ± 0.47 | 3.86 ± 0.2 |  | 
8 | KQSFLDGGKGHHLPSENLGKEPLD [TOR1AIP2] | 5.13 ± 0.11 | 5.01 ± 0.21 |  | 
9 | VVTLWYRAPEVLLQSTYATPVDMW [CDK4] | 3.15 ± 0.61 | 3.07 ± 0.68 |  | 
10 | NFSAAKSLLKKPDGVKESTESSNT [CAMK2D] | 5.35 ± 0.22 | 5.28 ± 0.35 |  | 
11 | YSAYIRRCACAASSDESPGSKCSP [TTC32] | 2.25 ± 0.23 | 2.85 ± 0.16 |  | 
12 | KQDSLVILTIMATLKIRNSNFYTV [TMEM106C] | 3.25 ± 0.41 | 3 ± 0.67 |  | 
13 | RTDLKDLIIFDKQSSQRMRQNLKL [CEP70] | 2.93 ± 0.24 | 2.93 ± 0.32 |  | 
14 | LPPVSTSFTTGGLRIPFPRDCGEE [TNXB] | 4.62 ± 0.27 | 4.43 ± 0.18 |  | 
15 | MFLHPVDYGRKAEELLWRKVYYEV [SMG5] | 2.45 ± 0.59 | 2.11 ± 0.22 |  | 
16 | KCDQPFFWNFKQMWDSKKIGLRQH [WDFY2] | 2.29 ± 0.36 | 2.65 ± 0.42 |  | 
17 | YTEGISQRMRVPEKLKVAPPNADL [MFF] | 3.28 ± 0.4 | 3.75 ± 0.32 |  | 
18 | MKLFDSICNNKWFTDTSIILFLNK [GNAI1] | 2.6 ± 0.59 | 2.58 ± 0.59 |  | 
19 | FSHITSARKARKYEIPHFRLKKVE [PHTF1] | 2.53 ± 0.47 | 2.82 ± 0.4 |  | 
20 | SSLCYKQRIKSQERETEATRGRGG [MOG] | 5 ± 0.27 | 5.06 ± 0.32 |  | 
21 | VDQYLALPDVSLGRYAYVRGGGDP [MCOLN1] | 3.19 ± 0.26 | 3.03 ± 0.4 |  | 
22 | LKDGYRLDEIPDDEDLDLIPPKSV [FAM219A] | 5.16 ± 0.15 | 5.3 ± 0.13 |  | 
23 | ASLHPSVSPGSPPPPLPNHKYNTT [PLAGL1] | 4.58 ± 0.14 | 4.586 ± 0.043 |  | 

Row | Sequence | protein stability index [1] | protein stability index [2] | protein stability index [3] | protein stability index [4]
24 | YSFRNPDVQSAIWRMLTGRRSLA [OR3A1] |  |  | 2.44 ± 0.51 | 2.65 ± 0.36
25 | IGGSGFLGQHMVEQLLARGYAVNV [NSDHL] | 2.16 ± 0.054 | 2.23 ± 0.2 |  | 
26 | QLDIEEEGRPGAATFHVGGGPAQN [TFE3] | 5.26 ± 0.31 | 5.16 ± 0.32 |  | 
27 | TVMILPVTHTEISPEQQFDRSVQR [TMEM175] | 3.64 ± 0.28 | 3.76 ± 0.16 |  | 
28 | TCAPSVSYFKCVQKEVLPSMRKIV [CCND1] | 2.33 ± 0.13 | 2.35 ± 0.33 |  | 
29 | VKSVSPQGNSVDRMAAPRAEALFD [NCF4] | 4.35 ± 0.14 | 4.71 ± 0.14 |  | 
30 | KYSYTSTSDDNLLKNIELFDKLAL [KCTD13] | 2.63 ± 0.42 | 2.59 ± 0.26 |  | 
31 | VLSCEAATQTERRLDLAAVTLRRG [FAM189A2] | 4.25 ± 0.19 | 4.28 ± 0.34 |  | 
32 | EQVFSLGDGVSGGFFGIRDSSFL [ZBED1] |  |  | 3.36 ± 0.31 | 3.61 ± 0.27
33 | CKCGECTAPRTLPSCLACNRQCLC [SPRY1] | 4.05 ± 0.2 | 4.04 ± 0.14 |  | 
34 | HCGELKRRLGLSTLGELKQNLSRS [TPD52L2] | 3.04 ± 0.22 | 3.22 ± 0.44 |  | 
35 | QLLARRMQVDKKRVYLATDDPSLL [FUT8] | 2.61 ± 0.23 | 2.92 ± 0.27 |  | 
36 | LPVYLKKDPAYFYGYVYFRQVRDK [DENND6A] | 2.59 ± 0.57 | 2.53 ± 0.47 |  | 
37 | MDEISEKLKKGICEALEDSDGRQD [MATN2] | 5.42 ± 0.25 | 5.4 ± 0.17 |  | 
38 | CKNGETLLGAVNFFVSSINTLVTK [ARFIP2] | 2.72 ± 0.75 | 2.64 ± 0.88 |  | 
39 | VDQTGVSGGVASFICQATGDPRPK [PTPRD] | 4.62 ± 0.17 | 4.81 ± 0.2 |  | 
40 | DVTAKNIWLAESVLDILTEQREWV [INTS3] | 2.3 ± 0.24 | 2.65 ± 0.33 |  | 
41 | DKLYHPECFMCSDCGLNLKQRGYF [PDLIM4] | 2.22 ± 0.18 | 2.23 ± 0.33 |  | 
42 | EEEAGQTSIEPSKSSIIPFRALKR [ZER1] | 4.87 ± 0.26 | 5.09 ± 0.16 |  | 
43 | FTDPFFIVETLCIIWFSFELVVRF [KCNA1] | 3.26 ± 0.13 | 3.18 ± 0.69 |  | 
44 | RTPLHYAAANCHFHCIETLVTTGA [ANKRD44] | 2.36 ± 0.57 | 2.44 ± 0.5 |  | 
45 | ARKRKNRRLKQAKEEAQAEIEQYR [ATP6V1G1] | 5.03 ± 0.38 | 5.13 ± 0.32 |  | 
46 | VEESEASSSVSISHSASATGNVCI [LMNB1] | 4.84 ± 0.11 | 4.71 ± 0.12 |  | 

Row | Sequence | protein stability index [1] | protein stability index [2] | protein stability index [3] | protein stability index [4]
47 | EGHLDDGGYTPDLKMSYSRGLIPV [RBMY1A1] | 3.25 ± 0.14 | 3.15 ± 0.38 |  | 
48 | HKTHQAPASASSLPGTGAQLPPQP [DYRK1B] | 4.55 ± 0.43 | 4.97 ± 0.22 |  | 
49 | TIKHPGGAGAEESELQAYIAQCQD [MCOLN1] | 5.27 ± 0.2 | 5.23 ± 0.31 |  | 
50 | LRAGSSEFDSEHNLTSNEGHSLKN [RASAL3] | 4.67 ± 0.42 | 4.87 ± 0.64 |  | 
51 | KVLLSGATFLVTFGNSEKPETMTC [ZFYVE21] | 2.43 ± 0.27 | 2.23 ± 0.72 |  | 
52 | LSAGSPPVPPGWNPNSSSGKGSGG [DLX1] | 4.86 ± 0.24 | 4.72 ± 0.1 |  | 
53 | DSTGYMEVSLDSLDLRVKGILSSQ [EHMT1] | 3.08 ± 0.36 | 3.17 ± 0.29 |  | 
54 | VGEVPYWVLEPVLEGWRPDQLYRR [ELOA2] | 1.97 ± 0.33 | 2.32 ± 0.33 |  | 
55 | AAAHWYGGAEMRTQHWPIRLDGQQ [MYORG] | 2.86 ± 0.15 | 2.79 ± 0.14 |  | 
56 | TVSIMEPGETRRNSYPRADTGLFS [TRIM29] | 3.81 ± 0.2 | 3.64 ± 0.37 |  | 
57 | GQPAPPQLLLGRLFRWPDLQHAVE [SMAD6] | 2.63 ± 0.1 | 2.82 ± 0.39 |  | 
58 | KGERGEDSSEEKHLEEPGETQNAF [CHGB] | 5.61 ± 0.19 | 5.62 ± 0.13 |  | 
59 | RGIAIVSVLVILISIVIFCLETLP [KCNA4] | 2.29 ± 0.17 | 2.26 ± 0.33 |  | 
60 | PETMTCRLSNNQRYLFLDGDSHYE [ZFYVE21] | 2.52 ± 0.45 | 2.8 ± 0.33 |  | 
61 | RDEAIYECVASNNVGEISVSTRLT [PTPRD] | 4.03 ± 0.34 | 3.91 ± 0.23 |  | 
62 | LFGGFADFGSAAASGSFPSQVTAT [CLINT1] | 2.71 ± 0.37 | 3.02 ± 0.33 |  | 
63 | MECYDIYSKTWTKQPDLTMVRKIG [GAN] | 2.14 ± 0.34 | 2.66 ± 0.23 |  | 
64 | KSLEIEEKINKIKWLPQQNAAHSL [PPP2R2C] | 3.66 ± 0.21 | 3.67 ± 0.13 |  | 
65 | AASTAAALENLQVEASCSVCLEYL [TRIM39] | 2.74 ± 0.37 | 2.81 ± 0.48 |  | 
66 | SSCSSTSGGGGGGGGGGGGGKSGG [CCDC6] | 5.17 ± 0.065 | 5 ± 0.51 |  | 
67 | SISDLSEHVFDLILELYNIDSHLL [PDS5B] | 2.49 ± 0.89 | 2.25 ± 0.81 |  | 
68 | SGLIEIQSYPLCIYLINQKWFGRK [SLC22A15] | 2.47 ± 0.59 | 2.19 ± 0.2 |  | 
69 | GGYRPAEDKIFPVPEEPPVKKLMR [ZBED1] | 3.99 ± 0.13 | 4.36 ± 0.3 |  | 

Row | Sequence | protein stability index [1] | protein stability index [2] | protein stability index [3] | protein stability index [4]
70 | RFIRERDRAVNDYPSLYYPEMYIL [CDC25B] | 2.49 ± 0.53 | 1.91 ± 0.29 |  | 
71 | LALDSGASLLHLAVEAGQEECAKW [RIPK4] | 3.73 ± 1.2 | 3.46 ± 0.4 |  | 
72 | GGLLDEAMLDEISLMDLAIEEGFN [NFE2L1] | 4.16 ± 0.21 | 3.86 ± 0.31 |  | 
73 | PGQVAGADFESEDEGEEFDDWEDD [EID1] | 5.52 ± 0.59 | 5.59 ± 0.2 |  | 
74 | VMSGVKCSGTELSLAHCRHDGEDV [LOXL2] | 4.95 ± 0.21 | 4.89 ± 0.24 |  | 
75 | VNKYYPPDFNPEKHGSLNRYHNSH [YJU2B] | 3.41 ± 0.21 | 3.21 ± 0.39 |  | 
76 | ALQPSPSIRLPLDAPLPGSKAKPK [TBC1D10A] | 4.19 ± 0.21 | 4.32 ± 0.34 |  | 
77 | TWRLPDVSEAGGSGRLSASWEPLS [FCHO1] | 3.38 ± 0.13 | 3.24 ± 0.26 |  | 
78 | FLVFILNAGLVWFFPWREAKPGST [MFSD9] | 3.21 ± 0.74 | 3.11 ± 0.19 |  | 
79 | FSDGEKCRREAFRRLGNGVSDDLS [PHTF1] | 4.05 ± 0.13 | 3.82 ± 0.17 |  | 
80 | NNPEYLRERNMAPDLRQDFNMMEQ [ADD1] | 4.74 ± 0.27 | 4.87 ± 0.18 |  | 
81 | LGLNAAFWFFALTSLRLVFLLAFG [RETREG3] | 3.06 ± 0.41 | 3.35 ± 1.4 |  | 
82 | ERSQVRGSAPPRATPGGGTGEAAR [PCDHGC5] | 5.13 ± 0.31 | 5.4 ± 0.18 |  | 
83 | VTGREGFPTDAPYPTTLGKDRECQ [ZNF8] | 4.74 ± 0.13 | 4.8 ± 0.32 |  | 
84 | TEKDLLEDGFGEHPFYHCLVAEVP [SAT1] | 3.35 ± 0.32 | 3.41 ± 0.37 |  | 
85 | VPVQPLLPESLARSLLPSTEYQKQ [FBF1] | 4.18 ± 0.18 | 4.58 ± 0.28 |  | 
86 | QYFVVDPMAEYNMPQYILREFKVT [PTPRD] | 2.48 ± 0.56 | 2.15 ± 0.16 |  | 
87 | LLERQVEMTPEKFSVLMEKLCKKG [FANCE] | 3.03 ± 0.26 | 3.36 ± 0.19 |  | 
88 | GERVVINISGLRFETQLKTLCQFP [KCNA3] | 2.61 ± 0.45 | 2.19 ± 0.083 |  | 
89 | SVSREARQTVPPLTVRLHTQSVSE [PWWP2B] | 4.29 ± 0.23 | 4.42 ± 0.28 |  | 
